Consider one molecule from US20240100152A1 (UNIVERSITY OF PITTSBURGH OF THE COMMONWEALTH SYSTEM OF …, published 2024).

This assay addresses T1, human α7 nicotinic acetylcholine receptor (α7nAChR) expressed on HEK293T/17 cells (human, UniProt P36544 23-502).
T1 construct: whole, on cells
The experiment in a line: live-cell fluorescent labeling of transfected HEK293 cells.

T1 sequence (P36544 23-502): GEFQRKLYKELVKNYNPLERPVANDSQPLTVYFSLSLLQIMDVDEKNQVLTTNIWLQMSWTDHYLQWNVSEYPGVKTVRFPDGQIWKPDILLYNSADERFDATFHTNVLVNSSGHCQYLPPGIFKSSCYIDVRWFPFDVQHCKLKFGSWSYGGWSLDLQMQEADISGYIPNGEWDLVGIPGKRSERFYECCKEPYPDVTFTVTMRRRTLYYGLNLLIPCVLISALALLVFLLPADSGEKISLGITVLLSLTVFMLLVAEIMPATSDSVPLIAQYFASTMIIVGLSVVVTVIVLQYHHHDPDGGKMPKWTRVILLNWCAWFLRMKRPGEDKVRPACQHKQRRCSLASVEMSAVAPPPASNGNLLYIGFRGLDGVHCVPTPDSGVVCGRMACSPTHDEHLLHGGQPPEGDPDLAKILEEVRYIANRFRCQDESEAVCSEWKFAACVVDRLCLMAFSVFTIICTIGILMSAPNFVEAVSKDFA

B1: α-bungarotoxin Alexa Fluor 594 conjugate (ligand)
chain: IVCHTTATSPISAVTCPPGENLCYRKMWCDAFCSSRGKVVELGCAATCPSKKPYEEVTCCSTDKCNPHPKQRPG
Regarding B1, the binding result was “binds”.
